Laboratory results: patent publication US20240408235

What was measured:
Assay in all cases: cell_activity
[1] = tested on: AAT 43-44L.384 meganuclease (synthetic construct (I-CreI derived)?); details: HEK293, 25 ng RNA
[2] = tested on: AAT 43-44L.47 meganuclease (synthetic construct (I-CreI derived)?); details: HEK293, 25 ng RNA
[3] = tested on: AAT 43-44x.58 meganuclease (synthetic construct (I-CreI derived)?); details: PiZ mouse liver, AAV8 delivery with repair template
[4] = tested on: AAT 43-44L.132 meganuclease (synthetic construct (I-CreI derived)?); details: HEK293, 25 ng RNA
[5] = tested on: AAT 43-44L.276 meganuclease (synthetic construct (I-CreI derived)?); details: HEK293, 25 ng RNA
[6] = tested on: AAT 43-44L.105 meganuclease (synthetic construct (I-CreI derived)?); details: PiZ mouse liver, AAV8 delivery with repair template
[7] = tested on: AAT 37-38x.50 meganuclease (synthetic construct (I-CreI derived)?); details: PiZ mouse liver, AAV8 delivery with repair template
[8] = tested on: AAT 37-38x.61 meganuclease (synthetic construct (I-CreI derived)?); details: Hep3B, day 6, 50 ng mRNA
[9] = tested on: AAT 37-38L.167 meganuclease (synthetic construct (I-CreI derived)?); details: HEK293, 25 ng RNA
[10] = tested on: AAT 37-38L.24 meganuclease (synthetic construct (I-CreI derived)?); details: HEK293, 25 ng RNA
[11] = tested on: AAT 37-38L.158 meganuclease (synthetic construct (I-CreI derived)?); details: HEK293, 25 ng RNA
[12] = tested on: AAT 37-38L.262 meganuclease (synthetic construct (I-CreI derived)?); details: PiZ mouse liver, LNP-A 0.5 mg/kg; 45% at low dose
[13] = tested on: AAT 37-38L.175 meganuclease (synthetic construct (I-CreI derived)?); details: HEK293, 25 ng RNA
[14] = tested on: AAT 35-36x.70 meganuclease (synthetic construct (I-CreI derived)?); details: PiZ mouse liver, scAAV repair (3.5% ssAAV)
[15] = tested on: AAT 41-42L.153 meganuclease (synthetic construct (I-CreI derived)?); details: HEK293, 25 ng RNA
[16] = tested on: AAT 41-42L.42 meganuclease (synthetic construct (I-CreI derived)?); details: HEK293, 25 ng RNA
[17] = tested on: AAT 41-42L.185 meganuclease (synthetic construct (I-CreI derived)?); details: HEK293, 25 ng RNA
[18] = tested on: AAT 41-42L.104 meganuclease (synthetic construct (I-CreI derived)?); details: HEK293, 25 ng RNA
[19] = tested on: AAT 41-42x.32 meganuclease (synthetic construct (I-CreI derived)?); details: Hep3B, day 6, 50 ng mRNA
[20] = tested on: AAT 41-42L.294 meganuclease (synthetic construct (I-CreI derived)?); details: HEK293, 25 ng RNA
[21] = tested on: AAT 9-10x.311 meganuclease (synthetic construct (I-CreI derived)?); details: PiZ mouse liver, AAV8; groups 1, 3, 4 (~10% in group 2); site highly methylated
[22] = tested on: AAT 33-34x.13 meganuclease (synthetic construct (I-CreI derived)?); details: PiZ mouse liver, ssAAV repair (11% scAAV)

Sequence “AGGACCTAGATGTAGGATTCTG (double strand) [AAT 43-44 recognition sequence]” has an activity [1] of 26 % indels, an activity [2] of 52 % indels and an activity [3] of 3 % insertions. It also gave an activity [4] of 52 % indels, an activity [5] of 16 % indels and an activity [6] of 14 % insertions.
Work on “CCCCACTTTGCACAACTGGGGA (double strand) [AAT 37-38 recognition sequence]” yielded an activity [7] of 4 % insertions, an activity [8] of 80 % indels and an activity [9] of 86 % indels. It also gave an activity [10] of 90 % indels, an activity [11] of 90 % indels and an activity [12] of 53 % indels. It also gave an activity [13] of 90 % indels.
“GGCCTGGTCACACTTGGGTTTA (double strand) [AAT 35-36 recognition sequence]” was tested, and the activity [14] was 7.5 % insertions.
Sequence “TGAGGATCCTTGTGAGTGTTGG (double strand) [AAT 41-42 recognition sequence]” has an activity [15] of 50 % indels, an activity [16] of 77 % indels and an activity [17] of 20 % indels. The activity [18] was 50 % indels, the activity [19] was 17 % indels and the activity [20] was 40 % indels.
“TGCCCGCTCACACCAGACCCTG (double strand) [AAT 9-10 recognition sequence]” gave an activity [21] of 20 % indels.
With “TTCAGACAGTTGCTCAACCTCT (double strand) [AAT 33-34 recognition sequence]” the activity [22] was 10 % insertions.
